Measurements as given in paper PMC5007788, “Heat Shock Factor 1 Is a Substrate for p38 Mitogen-Activated Protein Kinases” (Molecular and Cellular Biology, 2016).
Where “and” joins values, the source holds several entries; their conditions need not be identical. Equal entries are not always repeated.

How the values were obtained:
[1] = target: T1, Heat shock factor 1 (HSF1), endogenous in MDA-MB-231 cells (human (endogenous in MDA-MB-231)), Q00613; assay: cross-linking; MDA-MB-231 cells treated with 20 uM PEITC for 3 h, fixed with 0.4% (wt/vol) paraformaldehyde in PBS, quenched with glycine; nuclear and cytoplasmic fractions; SDS-PAGE (10% gel), blot with anti-HSF1; conditions: remark: other sources report otherwise
T1 chain: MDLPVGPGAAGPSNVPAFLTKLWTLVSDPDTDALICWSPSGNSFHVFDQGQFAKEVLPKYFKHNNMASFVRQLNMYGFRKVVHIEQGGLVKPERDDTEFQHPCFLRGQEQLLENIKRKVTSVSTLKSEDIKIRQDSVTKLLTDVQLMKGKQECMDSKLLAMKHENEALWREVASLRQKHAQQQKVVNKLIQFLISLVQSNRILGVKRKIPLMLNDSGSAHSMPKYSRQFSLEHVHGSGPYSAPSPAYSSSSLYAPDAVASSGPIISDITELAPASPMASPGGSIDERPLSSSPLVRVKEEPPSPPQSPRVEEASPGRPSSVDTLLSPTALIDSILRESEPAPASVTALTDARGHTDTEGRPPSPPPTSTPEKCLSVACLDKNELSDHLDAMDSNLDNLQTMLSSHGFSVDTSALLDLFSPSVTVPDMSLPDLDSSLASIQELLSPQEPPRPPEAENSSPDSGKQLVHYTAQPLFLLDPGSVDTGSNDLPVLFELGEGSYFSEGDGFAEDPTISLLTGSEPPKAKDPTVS

[2] = target: the molecule itself; assay: gel electrophoresis (NuPAGE NoVex Bis-Tris 10% gel); purified recombinant hexahistidine-tagged HSF1 (WT and S326A) run on NuPAGE; dimeric and trimeric species formed spontaneously beside the major band

B1: Heat shock factor 1 (HSF1), endogenous in MDA-MB-231 cells, Q00613 1-529 (natural protein)
chain: MDLPVGPGAAGPSNVPAFLTKLWTLVSDPDTDALICWSPSGNSFHVFDQGQFAKEVLPKYFKHNNMASFVRQLNMYGFRKVVHIEQGGLVKPERDDTEFQHPCFLRGQEQLLENIKRKVTSVSTLKSEDIKIRQDSVTKLLTDVQLMKGKQECMDSKLLAMKHENEALWREVASLRQKHAQQQKVVNKLIQFLISLVQSNRILGVKRKIPLMLNDSGSAHSMPKYSRQFSLEHVHGSGPYSAPSPAYSSSSLYAPDAVASSGPIISDITELAPASPMASPGGSIDERPLSSSPLVRVKEEPPSPPQSPRVEEASPGRPSSVDTLLSPTALIDSILRESEPAPASVTALTDARGHTDTEGRPPSPPPTSTPEKCLSVACLDKNELSDHLDAMDSNLDNLQTMLSSHGFSVDTSALLDLFSPSVTVPDMSLPDLDSSLASIQELLSPQEPPRPPEAENSSPDSGKQLVHYTAQPLFLLDPGSVDTGSNDLPVLFELGEGSYFSEGDGFAEDPTISLLTGSEPPKAKDPTVS
- stoichiometry N [1]: 2 and 3

B2: Recombinant hexahistidine-tagged HSF1 wild-type (natural protein, human, UniProt Q00613 1-529, looked up)
chain: MDLPVGPGAAGPSNVPAFLTKLWTLVSDPDTDALICWSPSGNSFHVFDQGQFAKEVLPKYFKHNNMASFVRQLNMYGFRKVVHIEQGGLVKPERDDTEFQHPCFLRGQEQLLENIKRKVTSVSTLKSEDIKIRQDSVTKLLTDVQLMKGKQECMDSKLLAMKHENEALWREVASLRQKHAQQQKVVNKLIQFLISLVQSNRILGVKRKIPLMLNDSGSAHSMPKYSRQFSLEHVHGSGPYSAPSPAYSSSSLYAPDAVASSGPIISDITELAPASPMASPGGSIDERPLSSSPLVRVKEEPPSPPQSPRVEEASPGRPSSVDTLLSPTALIDSILRESEPAPASVTALTDARGHTDTEGRPPSPPPTSTPEKCLSVACLDKNELSDHLDAMDSNLDNLQTMLSSHGFSVDTSALLDLFSPSVTVPDMSLPDLDSSLASIQELLSPQELPRPPEAENSSPDSGKQLVHYTAQPLFLLDPGSVDTGSNDLPVLFELGEGSYFSEGDGFAEDPTISLLTGSEPPKAKDPTVS
notes: subcloned into pet15b (NdeI, XhoI); The vector pet15b is named; also called His-HSF1; HSF1 WT; source: E. coli BL21(DE3)pLysS, purified (nickel agarose resin, dialysis)
- stoichiometry N [2]: 2 and 3

B3: Recombinant hexahistidine-tagged mutant S326A HSF1 (natural protein, human, UniProt Q00613 1-529, looked up)
chain: MDLPVGPGAAGPSNVPAFLTKLWTLVSDPDTDALICWSPSGNSFHVFDQGQFAKEVLPKYFKHNNMASFVRQLNMYGFRKVVHIEQGGLVKPERDDTEFQHPCFLRGQEQLLENIKRKVTSVSTLKSEDIKIRQDSVTKLLTDVQLMKGKQECMDSKLLAMKHENEALWREVASLRQKHAQQQKVVNKLIQFLISLVQSNRILGVKRKIPLMLNDSGSAHSMPKYSRQFSLEHVHGSGPYSAPSPAYSSSSLYAPDAVASSGPIISDITELAPASPMASPGGSIDERPLSSSPLVRVKEEPPSPPQSPRVEEASPGRPSSVDTLLAPTALIDSILRESEPAPASVTALTDARGHTDTEGRPPSPPPTSTPEKCLSVACLDKNELSDHLDAMDSNLDNLQTMLSSHGFSVDTSALLDLFSPSVTVPDMSLPDLDSSLASIQELLSPQELPRPPEAENSSPDSGKQLVHYTAQPLFLLDPGSVDTGSNDLPVLFELGEGSYFSEGDGFAEDPTISLLTGSEPPKAKDPTVS
notes: Heat shock factor 1, human, full-length cDNA from Addgene plasmid 32537 (P to L at position 448) in pet15b, with S326A made by site-directed mutagenesis; Made from the pet15b plasmid of m3; also called S326A mutant HSF1; HSF1 S326A; source: E. coli BL21(DE3)pLysS, purified (nickel agarose resin, dialysis)
- stoichiometry N [2]: 2 and 3
